In patent publication US20250136694A1 (HARBOUR BIOMED SHANGHAI, published 2025):

Columns and labels:
[1] = biological target: T1, mouse B7-H4 on the cell surface (mouse, UniProt Q7TSP5 25-257); assay: FACS, CHO-K1/m B7-H4 cells
T1 construct: whole, on cells; also called m B7-H4; CHO-K1/mB7-H4
T1 sequence (looked up): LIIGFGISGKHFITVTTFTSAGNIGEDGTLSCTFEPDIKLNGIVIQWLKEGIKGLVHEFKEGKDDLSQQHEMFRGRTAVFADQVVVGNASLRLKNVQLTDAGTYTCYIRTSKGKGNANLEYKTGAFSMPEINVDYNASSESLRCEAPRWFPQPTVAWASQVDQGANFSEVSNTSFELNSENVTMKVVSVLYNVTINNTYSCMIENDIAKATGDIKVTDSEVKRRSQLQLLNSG

[2] = biological target: T2, human B7-H4 on the cell surface (human, UniProt Q7Z7D3 25-282); assay: FACS, MDA-MB-468 cells
T2 construct: whole, on cells; also called hu B7-H4; CHO-K1/huB7-H4
T2 sequence (looked up): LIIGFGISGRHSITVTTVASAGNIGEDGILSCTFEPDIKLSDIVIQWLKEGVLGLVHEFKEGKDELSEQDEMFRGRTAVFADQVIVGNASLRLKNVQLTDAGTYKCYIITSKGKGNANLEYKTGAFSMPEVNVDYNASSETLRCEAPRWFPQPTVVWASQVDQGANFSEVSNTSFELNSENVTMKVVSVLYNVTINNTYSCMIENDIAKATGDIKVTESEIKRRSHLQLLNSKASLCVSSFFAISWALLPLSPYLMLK
Procedure: (§1) Antibody binding experiments at the cellular level were performed using tumor cells endogenously expressing B7-H4 or primary T cells expressing CD3. MDA-MB-468 cells or human T cells were resuspended in PBS containing 2% BSA. The cell density was adjusted to 1×10⁶ cells/mL. The cells were seeded in a 96-well V-bottom plate (Corning, #3894) at 100 μL/well, followed by the addition of test antibodies 3-fold serially diluted at a concentration that was 2 times the final concentration, each at 100 μL/well. The cells were incubated away from light at 4° C. for 2 h. Then, the cells in each well were rinsed twice with 100 μL of pre-cooled PBS containing 2% BSA and centrifuged at 500 g at 4° C. for 5 min, and then the supernatant was discarded. […] The cells in each well were rinsed twice with 100 μL of pre-cooled PBS containing 2% BSA and centrifuged at 500 g at 4° C. for 5 min, and then the supernatant was discarded. Finally, the cells in each well were resuspended with 200 μL of pre-cooled PBS containing 2% BSA, and the fluorescence signal values were read using an ACEA Novocyte3000 flow cytometer.
The results are shown in Tables 6-1, 6-2, and 6-3 and FIGS. 5A-5F.

[3] = biological target: T2, human B7-H4 on the cell surface; assay: FACS, MDA-MB-468 cells; remark: listed apart in the source
Procedure: as §1

[4] = biological target: T2, human B7-H4 on the cell surface; assay: FACS, CHO-K1/hu B7-H4 cells
Procedure: (§2) This example is intended to investigate the in vitro binding activity of the CD3 bispecific antibodies of B7-H4 for human, cynomolgus monkey, and mouse B7-H4. Antibody binding experiments at the cellular level were conducted using a CHO-K1 cell strain overexpressing human B7-H4 (CHO-K1/huB7-H4, Harbour BioMed), a CHO-K1 cell strain overexpressing cynomolgus monkey B7-H4 (CHO-K1/cynoB7-H4, Harbour BioMed), and a CHO-K1 cell strain overexpressing mouse B7-H4 (CHO-K1/mB7-H4, Harbour BioMed). Briefly, cells were digested and resuspended in PBS containing 2% FBS, and the cell density was adjusted to 1×10⁶ cells/mL. The cells were seeded in a 96-well V-bottom plate (Corning, Cat #3894) at 100 μL/well, followed by the addition of test antibodies 3-fold serially diluted at a concentration that was 2 times the final concentration, each at 100 μL/well. The cells were incubated away from light at 4° C. for 2 h. Then, the cells in each well were rinsed twice with 100 μL of pre-cooled PBS and centrifuged at 500 g at 4° C. for 5 min, and then the supernatant was discarded. […] The cells in each well were then rinsed twice with 100 μL of pre-cooled PBS and centrifuged at 500 g at 4° C. for 5 min, and then the supernatant was discarded. Finally, the cells in each well were resuspended in 200 μL of pre-cooled PBS, and the fluorescence signal values were read using ACEA Novocyte3000.

[5] = biological target: T3, cynomolgus monkey B7-H4 on the cell surface (cynomolgus monkey, UniProt A0A2K5U6P5 25-282); assay: FACS, CHO-K1/cyno B7-H4 cells
T3 construct: whole, on cells; also called cyno B7-H4; CHO-K1/cynoB7-H4
T3 sequence: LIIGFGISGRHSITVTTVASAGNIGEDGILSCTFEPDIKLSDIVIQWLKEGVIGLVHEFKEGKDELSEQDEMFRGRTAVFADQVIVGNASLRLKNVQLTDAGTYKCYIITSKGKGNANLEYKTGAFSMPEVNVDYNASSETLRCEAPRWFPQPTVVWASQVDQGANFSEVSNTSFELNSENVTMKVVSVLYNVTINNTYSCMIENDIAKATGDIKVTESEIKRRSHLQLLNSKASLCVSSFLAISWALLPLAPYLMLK
Procedure: as §2

[6] = biological target: T4, human B7-H4 (protein in solution, BLI) (human, UniProt Q7Z7D3 25-258, limits assumed); assay: BLI (Octet), antibody captured on AHC sensor, antigen in solution
T4 sequence (looked up): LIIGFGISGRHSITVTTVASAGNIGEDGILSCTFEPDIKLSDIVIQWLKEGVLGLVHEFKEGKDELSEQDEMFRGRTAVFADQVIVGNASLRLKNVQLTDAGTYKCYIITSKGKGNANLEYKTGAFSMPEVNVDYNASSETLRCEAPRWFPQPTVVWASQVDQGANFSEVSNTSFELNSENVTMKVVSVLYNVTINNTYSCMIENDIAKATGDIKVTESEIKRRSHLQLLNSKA
Procedure: The binding kinetics between the antigen and the antibody was analyzed by the biolayer interferometry (BLI) technique using an Octet Red 96e molecular interaction analyzer (Fortebio).
When the affinity of the antigen for the antibody was determined, the rotation speed of the sensor was set at 1000 rpm/min. […] Finally, the AHC sensor was immersed in a 10 mM glycine-hydrochloric acid solution at pH 1.5 for regeneration to elute the proteins bound to the sensor.
When data analysis was performed using Octet Data Analysis software (Fortebio, version 11.0), 0 nM was taken as a reference well, and reference subtraction was performed; the “1:1 Global fitting” method was selected to fit the data, and the kinetics parameters of the binding of antigens to antigen-binding proteins were calculated, with kₒₙ(1/Ms) values, kdis(1/s) values, and KD(M) values obtained (see Table 3 and FIG. 2).

[7] = biological target: T1, mouse B7-H4 on the cell surface; assay: FACS, CHO-K1/m B7-H4 cells; remark: listed apart in the source
Procedure: as §2

| Binder | binding result [1] | EC50 [2] [nM] | EC50 [3] [nM] | EC50 [4] [nM] | EC50 [5] [nM] | Kd [6] [nM] | koff [6] [s⁻¹] | kon [6] [M⁻¹ s⁻¹] | EC50 [7] [nM] |
| --- | --- | --- | --- | --- | --- | --- | --- | --- | --- |
| PR006391 (bispecific antibody, human IgG1, lambda, also called B7-H4xCD3 bispecific antibody; PR003886 Fab + bivalent PR007440) light: QAVVTQEPSLTVSPGGTVTLTCRSSTGAVTTSNYANWVQQKPGQAPRGLIGGTNKRAPWTPARFSGSLLGDKAALTLLGAQPEDEAEYFCALWYSNLWVFGGGTKLTVLGQPKAAPSVTLFPPSSEELQANKATLVCLISDFYPGAVTVAWKADSSPVKAGVETTTPSKQSNNKYAASSYLSLTPEQWKSHRSYSCQVTHEGSTVEKTVAPTECS heavy: EVQLVESGGGLVQPGGSLKLSCAASGFTFSTYAMNWVRQASGKGLEWVGRIRSKYNNYATYYADSVKDRFTISRDDSKNTAYLQMNSLKTEDTAVYYCTRHGNFGNSYVSWFAYWGQGTLVTVSSASTKGPSVFPLAPSSKSTSGGTAALGCLVKDYFPEPVTVSWNSGALTSGVHTFPAVLQSSGLYSLSSVVTVPSSSLGTQTYICNVNHKPSNTKVDKKVEPKSCDKTHTCPPCPAPEAAGAPSVFLFPPKPKDTLMISRTPEVTCVVVDVSHEDPEVKFNWYVDGVEVHNAKTKPREEQYNSTYRVVSVLTVLHQDWLNGKEYKCKVSNKALPAPIEKTISKAKGQPREPQVYTLPPCREEMTKNQVSLWCLVKGFYPSDIAVEWESNGQPENNYKTTPPVLDSDGSFFLYSKLTVDKSRWQQGNVFSCSVMHEALHNHYTQKSLSLSPGK EVQLVESGGGLVQPGGSLRLSCAASGFAFSNYWMHWARQVPGKGRVWISRISGDSRSTSYADSVKGRFTISRDNAKNMVYLQMNNLRAEDTAVYYCARDRFGDDYYYGMNVWGQGTTVTVSSGGGGSGGGGSGGGGSEVQLVESGGGLVQPGGSLRLSCAASGFAFSNYWMHWARQVPGKGRVWISRISGDSRSTSYADSVKGRFTISRDNAKNMVYLQMNNLRAEDTAVYYCARDRFGDDYYYGMNVWGQGTTVTVSSASEPKSSDKTHTCPPCPAPEAAGAPSVFLFPPKPKDTLMISRTPEVTCVVVDVSHEDPEVKFNWYVDGVEVHNAKTKPREEQYNSTYRVVSVLTVLHQDWLNGKEYKCKVSNKALPAPIEKTISKAKGQPREPQVCTLPPSREEMTKNQVSLSCAVKGFYPSDIAVEWESNGQPENNYKTTPPVLDSDGSFFLVSKLTVDKSRWQQGNVFSCSVMHEALHNHYTQKSLSLSPGK | no binding | 19.1 | 15.8 | 3.54 | 3.79 | 3.75 | 0.000339 | 90400 | – |
| PR005885 (bispecific antibody, human IgG1, lambda, Chain-3 is the VL-linker-VH scFv of anti-B7-H4 antibody PR003366 fused to hinge-CH2-CH3 (hole); also called B7-H4xCD3 bispecific antibody; 1+1 Fab-Fc-scFv) light: QAVVTQEPSLTVSPGGTVTLTCRSSTGAVTTSNYANWVQQKPGQAPRGLIGGTNKRAPWTPARFSGSLLGDKAALTLLGAQPEDEAEYFCALWYSNLWVFGGGTKLTVLGQPKAAPSVTLFPPSSEELQANKATLVCLISDFYPGAVTVAWKADSSPVKAGVETTTPSKQSNNKYAASSYLSLTPEQWKSHRSYSCQVTHEGSTVEKTVAPTECS heavy: EVQLVESGGGLVQPGGSLKLSCAASGFTFSTYAMNWVRQASGKGLEWVGRIRSKYNNYATYYADSVKDRFTISRDDSKNTAYLQMNSLKTEDTAVYYCTRHGNFGNSYVSWFAYWGQGTLVTVSSASTKGPSVFPLAPSSKSTSGGTAALGCLVKDYFPEPVTVSWNSGALTSGVHTFPAVLQSSGLYSLSSVVTVPSSSLGTQTYICNVNHKPSNTKVDKKVEPKSCDKTHTCPPCPAPEAAGAPSVFLFPPKPKDTLMISRTPEVTCVVVDVSHEDPEVKFNWYVDGVEVHNAKTKPREEQYNSTYRVVSVLTVLHQDWLNGKEYKCKVSNKALPAPIEKTISKAKGQPREPQVYTLPPCREEMTKNQVSLWCLVKGFYPSDIAVEWESNGQPENNYKTTPPVLDSDGSFFLYSKLTVDKSRWQQGNVFSCSVMHEALHNHYTQKSLSLSPGK scFv: EIVMTQSPASLSVSPGERATLSCRASQSVSSNLAWYQQKPGQAPRLLIYGASTRATGIPARVSGGGSGTEFTLTISSLQSEDFAVYYCQQYKNWPFTFGPGTKLEIKGGGGSGGGGSGGGGSGGGGSQVQLVQSGAEVKKPGSSMRVSCKASEDTFSSYAISWVRQAPGQGLEWMGGTAPIFGTTNYAQKFQGRVTITADKSTSTAYMELSSLRSEDTAVYYCARGGPYFDYWGQGTLVTVSSASEPKSSDKTHTCPPCPAPEAAGAPSVFLFPPKPKDTLMISRTPEVTCVVVDVSHEDPEVKFNWYVDGVEVHNAKTKPREEQYNSTYRVVSVLTVLHQDWLNGKEYKCKVSNKALPAPIEKTISKAKGQPREPQVCTLPPSREEMTKNQVSLSCAVKGFYPSDIAVEWESNGQPENNYKTTPPVLDSDGSFFLVSKLTVDKSRWQQGNVFSCSVMHEALHNHYTQKSLSLSPGK | – | – | 92.6 | 4.79 | 5.92 | – | – | – | 37 |
